# Results reported in US20180111972A1 (Stanford University, published 2018).
# Like-named read-outs stand apart in the source and are kept apart here.
# Columns and labels:
# [1] = target: T1, human VEGFR on human umbilical vein endothelial cells (HUVECs) (human, UniProt P35968 20-1356); assay: flow cytometry on HUVECs, soluble ligand titrated 3 h at 4 C, anti-FLAG-PE
# T1 construct: The phosphorylation blots on these cells detect VEGFR2
# Method: (§1) To test binding to VEGFR, human umbilical vein endothelial cells (HUVECs) and murine angiosarcoma endothelial cells (SVR) were used.
# (§2) Cell-binding assay. Varying concentrations of scPDGF, scVEGF, and PDGF/VEGF ligands were incubated with 25,000 PDGFR- or VEGFR-expressing cells in binding buffer (20 mM Tris pH 7.5 with 1 mM MgCl₂, 1 mM MnCl₂, 2 mM CaCl₂, 100 mM NaCl, and 1 mg/ml BSA) for 5 hr (BJ-5ta, NIH/3T3) or 3 hr (HUVEC, SVR) at 4° C. Cells were washed and pelleted, then incubated with 1:100 R-PE-conjugated anti-FLAG antibody (Prozyme) for 15 min on ice. Cells were washed, pelleted, and resuspended in binding buffer immediately before analysis by flow cytometry using BD Accuri C6. Flow cytometry data were analyzed using BD Accuri C6 software, and statistical analysis was performed using GraphPad Prism 6.
# [2] = target: T1, human VEGFR on human umbilical vein …; assay: flow cytometry titration of the soluble FLAG-tagged protein on HUVECs, anti-FLAG detection
# Method: as §1, §2
# [3] = target: PDGFRβ on DiscoveRx PathHunter U2OS PDGFRβ reporter cells (UniProt P09619 33-1106, limits assumed); assay: cell-based or functional assay
# Sequence of PDGFRβ on DiscoveRx PathHunter U2OS PDGFRβ reporter cells (P09619 33-1106 limits assumed): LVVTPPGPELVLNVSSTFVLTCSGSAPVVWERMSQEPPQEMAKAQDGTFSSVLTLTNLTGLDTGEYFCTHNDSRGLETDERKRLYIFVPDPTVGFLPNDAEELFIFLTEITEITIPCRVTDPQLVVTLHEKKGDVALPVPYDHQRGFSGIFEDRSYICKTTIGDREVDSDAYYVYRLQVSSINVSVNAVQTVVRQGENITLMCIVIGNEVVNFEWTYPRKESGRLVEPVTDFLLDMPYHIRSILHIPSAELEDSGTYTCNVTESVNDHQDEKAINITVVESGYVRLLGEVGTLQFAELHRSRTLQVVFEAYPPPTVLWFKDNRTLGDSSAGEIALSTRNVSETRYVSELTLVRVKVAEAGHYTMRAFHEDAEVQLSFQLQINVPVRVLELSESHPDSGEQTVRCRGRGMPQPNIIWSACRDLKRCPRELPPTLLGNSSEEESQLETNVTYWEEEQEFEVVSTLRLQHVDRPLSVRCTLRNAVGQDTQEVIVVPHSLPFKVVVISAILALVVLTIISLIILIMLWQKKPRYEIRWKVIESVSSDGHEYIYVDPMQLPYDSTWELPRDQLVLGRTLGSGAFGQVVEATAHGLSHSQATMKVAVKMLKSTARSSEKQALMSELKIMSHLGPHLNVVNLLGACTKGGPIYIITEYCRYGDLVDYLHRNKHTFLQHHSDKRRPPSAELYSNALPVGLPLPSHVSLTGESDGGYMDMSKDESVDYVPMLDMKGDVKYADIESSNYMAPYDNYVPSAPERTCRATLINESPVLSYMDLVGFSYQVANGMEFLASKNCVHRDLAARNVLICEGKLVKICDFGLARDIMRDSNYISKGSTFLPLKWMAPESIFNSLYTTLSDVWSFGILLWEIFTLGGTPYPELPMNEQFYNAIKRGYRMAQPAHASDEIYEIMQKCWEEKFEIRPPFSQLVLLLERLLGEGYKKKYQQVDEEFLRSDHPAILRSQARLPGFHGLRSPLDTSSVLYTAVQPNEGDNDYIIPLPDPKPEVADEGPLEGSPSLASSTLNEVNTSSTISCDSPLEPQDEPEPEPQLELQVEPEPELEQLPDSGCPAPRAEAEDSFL
# [4] = target: T2, PDGFRβ-His (residues 1-314 of PDGFR-β with C-terminal hexahistidine tag) (human, UniProt P09619 33-314); assay: yeast surface display, flow cytometry titration of PDGFRβ-His
# T2 construct: range 1-314; Monovalent form, expressed in FreeStyle 293-F cells; also called PDGRβ-His; PDGFR-His
# T2 sequence (P09619 other isoform, or with tags, fused parts or gaps limits assumed, form in doubt): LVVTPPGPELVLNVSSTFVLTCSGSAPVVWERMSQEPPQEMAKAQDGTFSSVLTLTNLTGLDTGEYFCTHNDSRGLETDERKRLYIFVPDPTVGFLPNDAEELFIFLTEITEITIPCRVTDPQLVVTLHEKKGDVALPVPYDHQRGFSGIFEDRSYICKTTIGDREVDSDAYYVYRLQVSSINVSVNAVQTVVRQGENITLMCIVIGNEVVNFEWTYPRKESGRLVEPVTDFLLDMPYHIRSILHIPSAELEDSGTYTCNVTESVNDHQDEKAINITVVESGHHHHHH
# Method: (§3) Cells were incubated in large enough volumes to avoid ligand depletion and appropriate time to reach equilibrium. During the last hour of incubation, yeast were incubated with 1:250 dilution of chicken anti-c-Myc (Invitrogen) in PBSA. […] Yeast were washed, pelleted, and resuspended in PBSA immediately before analysis by flow cytometry using BD FACSCalibur or BD Accuri C6. Flow cytometry data were analyzed using FlowJo (v7.6.1 and v10, Treestar) or BD Accuri C6 software. Statistical analysis was performed using GraphPad Prism 6.
# [5] = target: T3, soluble PDGFRβ (Fc or His format not stated for the experiment) (human, UniProt P09619 33-532); assay: yeast surface display titration; table under the panel 'PDGFR binding', Fc or His form not given
# T3 construct: extracellular domain
# T3 sequence (P09619 33-532): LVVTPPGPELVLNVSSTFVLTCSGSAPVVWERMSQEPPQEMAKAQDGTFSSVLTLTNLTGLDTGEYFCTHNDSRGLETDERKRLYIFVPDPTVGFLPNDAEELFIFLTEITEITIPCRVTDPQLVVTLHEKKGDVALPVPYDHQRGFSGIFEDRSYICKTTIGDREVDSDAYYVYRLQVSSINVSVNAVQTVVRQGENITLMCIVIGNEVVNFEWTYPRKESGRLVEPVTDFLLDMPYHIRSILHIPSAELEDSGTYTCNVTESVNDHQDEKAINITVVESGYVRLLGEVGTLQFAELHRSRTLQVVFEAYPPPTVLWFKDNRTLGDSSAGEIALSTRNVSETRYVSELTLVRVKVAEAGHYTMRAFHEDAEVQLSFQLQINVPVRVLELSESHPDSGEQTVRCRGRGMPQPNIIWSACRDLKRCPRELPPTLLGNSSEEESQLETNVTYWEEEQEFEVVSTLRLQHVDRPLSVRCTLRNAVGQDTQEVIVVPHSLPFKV
# [6] = target: T4, PDGFRβ-Fc (residues 1-314 of PDGFR-β fused to the Fc region of mouse IgG2a) (human; mouse, UniProt P09619 33-314); assay: yeast surface display titration, flow cytometry; PDGFRβ-Fc (bivalent)
# T4 construct: range 1-314; Expressed in FreeStyle 293-F cells; also called PDGRβ-Fc; PDGFR-Fc; not shown: Fc region of mouse IgG2a
# T4 sequence (P09619 33-314 limits assumed, form in doubt): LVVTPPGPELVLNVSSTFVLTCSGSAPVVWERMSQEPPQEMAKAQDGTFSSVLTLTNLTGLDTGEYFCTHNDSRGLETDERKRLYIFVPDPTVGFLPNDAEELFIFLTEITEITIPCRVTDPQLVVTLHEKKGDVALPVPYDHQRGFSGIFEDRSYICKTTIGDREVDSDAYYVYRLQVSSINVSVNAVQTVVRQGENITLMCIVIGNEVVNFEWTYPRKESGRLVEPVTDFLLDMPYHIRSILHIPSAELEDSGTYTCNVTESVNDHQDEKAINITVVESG
# Method: as §3
# [7] = target: T2, PDGFRβ-His (residues 1-314 of PDGFR-β …); assay: yeast surface display titration, flow cytometry; PDGFRβ-His (monovalent)
# Method: We tested the monovalent version of PDGFR (PDGRβ-His) to remove any avidity effects that may affect the measurements.
# as §3
# [8] = target: T5, VEGFR2-His (residues 1-764 of VEGFR2, Ig-like domains 1-7, with hexahistidine tag) (human, UniProt P35968 20-764); assay: yeast surface display titration, flow cytometry
# T5 construct: range 1-764; Monomeric form, expressed in FreeStyle 293-F cells; also called VEGFR-His
# T5 sequence (P35968 other isoform, or with tags, fused parts or gaps limits assumed, form in doubt): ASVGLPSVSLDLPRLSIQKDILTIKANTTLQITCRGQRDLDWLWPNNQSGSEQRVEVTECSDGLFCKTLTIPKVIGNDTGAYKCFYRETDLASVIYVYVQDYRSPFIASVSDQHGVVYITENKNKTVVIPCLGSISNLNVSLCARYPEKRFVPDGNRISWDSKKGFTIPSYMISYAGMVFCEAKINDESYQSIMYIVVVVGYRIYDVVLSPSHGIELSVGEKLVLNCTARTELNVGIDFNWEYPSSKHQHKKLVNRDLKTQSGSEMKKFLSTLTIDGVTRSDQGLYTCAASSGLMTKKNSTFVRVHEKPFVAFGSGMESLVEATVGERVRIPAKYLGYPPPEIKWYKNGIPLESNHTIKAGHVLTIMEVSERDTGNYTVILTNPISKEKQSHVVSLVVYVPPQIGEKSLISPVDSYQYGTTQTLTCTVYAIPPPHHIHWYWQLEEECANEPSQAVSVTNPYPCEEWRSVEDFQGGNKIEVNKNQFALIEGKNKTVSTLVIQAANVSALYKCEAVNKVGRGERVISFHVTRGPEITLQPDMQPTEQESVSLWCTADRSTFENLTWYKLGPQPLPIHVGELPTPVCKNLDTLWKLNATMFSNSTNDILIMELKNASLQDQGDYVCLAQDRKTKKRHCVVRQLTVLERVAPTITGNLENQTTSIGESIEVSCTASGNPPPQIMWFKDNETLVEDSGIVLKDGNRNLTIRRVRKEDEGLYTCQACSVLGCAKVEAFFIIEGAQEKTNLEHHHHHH
# Method: as §3
# [9] = target: T2, PDGFRβ-His (residues 1-314 of PDGFR-β …); assay: yeast surface display titration, flow cytometry
# Method: as §3
# [10] = target: T3, soluble PDGFRβ (Fc or His format not …); assay: yeast surface display, flow cytometry titration of soluble receptor; panel 'PDGFR binding', Fc or His form not given
# [11] = target: T4, PDGFRβ-Fc (residues 1-314 of PDGFR-β …); assay: yeast surface display, flow cytometry titration of PDGFRβ-Fc
# Method: as §3
# [12] = target: T5, VEGFR2-His (residues 1-764 of VEGFR2, …); assay: yeast surface display, flow cytometry equilibrium titration of VEGFR2-His, normalized fluorescence
# Method: as §3
# [13] = target: T5, VEGFR2-His (residues 1-764 of VEGFR2, …); assay: yeast surface display titration, flow cytometry; remark: listed apart in the source
# Method: as §3
# [14] = target: T2, PDGFRβ-His (residues 1-314 of PDGFR-β …); assay: yeast surface display titration, flow cytometry; remark: listed apart in the source
# Method: as §3
# [15] = target: T6, VEGFR2-Fc (R&D Systems) (human, UniProt P35968 20-764); assay: yeast surface display, flow cytometry titration of VEGFR2-Fc
# T6 construct: extracellular domain; Bought reagent; also called VEGFR-Fc; not shown: Fc part, detected with anti-human-IgG (Fc specific)
# T6 sequence (P35968 20-764): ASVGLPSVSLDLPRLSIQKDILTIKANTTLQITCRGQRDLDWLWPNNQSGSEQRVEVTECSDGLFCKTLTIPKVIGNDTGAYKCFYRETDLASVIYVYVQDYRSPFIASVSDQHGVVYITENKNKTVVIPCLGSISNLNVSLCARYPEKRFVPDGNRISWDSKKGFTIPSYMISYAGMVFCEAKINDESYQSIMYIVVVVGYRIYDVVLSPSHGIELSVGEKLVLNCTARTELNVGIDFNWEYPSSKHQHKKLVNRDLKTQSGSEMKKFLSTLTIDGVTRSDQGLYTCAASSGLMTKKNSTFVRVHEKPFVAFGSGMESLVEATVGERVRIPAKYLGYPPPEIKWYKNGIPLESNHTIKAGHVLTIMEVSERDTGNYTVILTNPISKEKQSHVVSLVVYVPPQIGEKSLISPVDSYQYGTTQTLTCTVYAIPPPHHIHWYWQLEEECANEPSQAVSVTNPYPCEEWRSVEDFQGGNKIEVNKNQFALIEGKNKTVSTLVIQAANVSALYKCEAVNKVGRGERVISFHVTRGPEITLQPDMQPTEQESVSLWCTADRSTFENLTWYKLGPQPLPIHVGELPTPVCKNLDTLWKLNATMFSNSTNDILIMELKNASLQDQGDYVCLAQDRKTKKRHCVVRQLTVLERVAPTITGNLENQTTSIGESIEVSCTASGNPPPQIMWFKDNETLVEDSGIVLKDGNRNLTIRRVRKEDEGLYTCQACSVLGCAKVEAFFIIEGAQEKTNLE
# Method: as §3
# [16] = target: T3, soluble PDGFRβ (Fc or His format not …); assay: yeast surface display, flow cytometry dot plot: soluble receptor bound (FL1) against surface expression (FL2); receptor concentration not printed [Cont.]
# [17] = target: T7, soluble VEGFR2 (Fc or His format not stated for the experiment) (human, UniProt P35968 20-764); assay: as above
# T7 construct: extracellular domain
# T7 sequence (P35968 20-764): as above
# [18] = target: T7, soluble VEGFR2 (Fc or His format not …); assay: yeast surface display, flow cytometry dot plot: soluble receptor bound (FL1) against surface expression (FL2); receptor concentration not given
# T1 sequence (P35968 20-1356 limits assumed): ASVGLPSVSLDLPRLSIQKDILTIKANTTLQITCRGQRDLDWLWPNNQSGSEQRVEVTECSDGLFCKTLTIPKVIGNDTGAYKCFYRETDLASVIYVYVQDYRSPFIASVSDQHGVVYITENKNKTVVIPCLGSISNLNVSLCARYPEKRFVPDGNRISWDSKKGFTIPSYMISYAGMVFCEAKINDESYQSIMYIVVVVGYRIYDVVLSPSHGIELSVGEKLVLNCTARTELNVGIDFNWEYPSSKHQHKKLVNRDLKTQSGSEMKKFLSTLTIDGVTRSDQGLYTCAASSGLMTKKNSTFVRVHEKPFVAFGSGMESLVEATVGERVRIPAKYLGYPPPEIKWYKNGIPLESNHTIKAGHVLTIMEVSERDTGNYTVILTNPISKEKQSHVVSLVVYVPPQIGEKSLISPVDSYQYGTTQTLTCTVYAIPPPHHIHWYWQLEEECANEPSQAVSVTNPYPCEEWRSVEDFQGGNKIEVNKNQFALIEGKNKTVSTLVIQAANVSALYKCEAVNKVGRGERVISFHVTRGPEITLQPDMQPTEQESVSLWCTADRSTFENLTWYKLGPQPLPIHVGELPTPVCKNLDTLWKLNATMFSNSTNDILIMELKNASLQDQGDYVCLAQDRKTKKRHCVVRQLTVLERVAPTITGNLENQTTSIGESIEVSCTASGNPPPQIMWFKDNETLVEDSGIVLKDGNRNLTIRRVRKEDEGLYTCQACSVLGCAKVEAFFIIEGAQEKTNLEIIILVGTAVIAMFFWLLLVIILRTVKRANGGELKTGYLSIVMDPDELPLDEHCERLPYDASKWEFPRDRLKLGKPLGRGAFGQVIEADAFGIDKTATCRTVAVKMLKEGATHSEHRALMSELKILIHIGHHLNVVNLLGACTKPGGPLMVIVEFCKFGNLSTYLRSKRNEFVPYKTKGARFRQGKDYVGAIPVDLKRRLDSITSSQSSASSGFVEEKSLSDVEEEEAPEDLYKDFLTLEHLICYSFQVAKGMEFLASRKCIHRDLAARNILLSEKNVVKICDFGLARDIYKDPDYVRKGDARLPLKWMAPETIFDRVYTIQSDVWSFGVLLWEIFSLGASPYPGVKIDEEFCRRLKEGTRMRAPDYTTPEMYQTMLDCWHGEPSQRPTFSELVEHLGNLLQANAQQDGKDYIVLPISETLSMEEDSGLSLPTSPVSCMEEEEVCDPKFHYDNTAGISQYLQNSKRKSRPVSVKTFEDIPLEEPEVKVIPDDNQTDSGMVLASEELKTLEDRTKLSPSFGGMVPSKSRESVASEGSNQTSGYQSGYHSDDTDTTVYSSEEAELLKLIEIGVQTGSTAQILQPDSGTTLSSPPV
binder,measurement,setting,value
"PVAM-S (PV R32A), soluble, FLAG and hexahistidine tags (designed binder, Secreted from S. cerevisiae YVH10 and treated with Endo Hf) DYKDDDDKIAEPAMIAECHPIETLVDILQEYPDEIGYIFKPSCVPLMRCGGCCNNRNVQCRPTEESNITMQIMRIKPHRGQHIGEMSFLQHNKCRCETVAAGSTSGSGKSSEGKGEVVKFMDVYQRSYCKTRTEVFEISRRLIDATNANFLVWPPCVEVQRCSGCCNHEGLECVPTQVQLRPVQVRKIEFVRKKPIFKKATVTLEDHLACECRPKKDHHHHHH",Kd,[1],0.53 nM
same,EC50 (read off the curve),[2],~700 pM
same,"IC50 of inhibition of stimulation by 0.5 nM PDGF-BB, PathHunter PDGFRβ reporter cells",[3],1.4 nM
"PV6 PDGF/VEGF chimera, yeast-displayed (designed binder) IAEPAMIAECHPIETLVDIFQEYPDEIEYIFKPSCVPLMRCGGCCNNRNVQCRPTEESNITMQIMRIKPHQGQHIGEMSFLQHNKCKCETVAAGSTSGSGKSSEGKGEVVKFMDVYQRSYCKTRTEVFEISRRLIDRTNANFLVWPPCVEVQRCSGCCNDEGLECVPTQVQLRPVQVRKIEIVRKKPIFKKATVTLEDHLACKCRPKKD",EC50 (read off the curve),[4],~100 nM
same,Kd,[5],140 nM
same,Kd,[6],0.099 nM
same,Kd,[7],140 nM
same,Kd,[8],230 nM
same,Kd,[9],270 nM
same,EC50 (read off the curve),[10],~100 nM
"PV6 I182F variant, yeast-displayed (designed binder, Clone from the PDGFR sorts of the error-prone library made from PV6; also called PV I182F) IAEPAMIAECHPIETLVDIFQEYPDEIEYIFKPSCVPLMRCGGCCNNRNVQCRPTEESNITMQIMRIKPHQGQHIGEMSFLQHNKCKCETVAAGSTSGSGKSSEGKGEVVKFMDVYQRSYCKTRTEVFEISRRLIDRTNANFLVWPPCVEVQRCSGCCNDEGLECVPTQVQLRPVQVRKIEFVRKKPIFKKATVTLEDHLACECRPKKD",EC50 (read off the curve),[4],~3 nM
same,EC50 (read off the curve),[11],~70 pM
same,Kd,[6],0.067 nM
same,Kd,[7],2.5 nM
"PVAM-S (PV R32A), yeast-displayed (designed binder, PVAM with R137A (R32A in PDGF-B numbering); also called R137A variant) IAEPAMIAECHPIETLVDILQEYPDEIGYIFKPSCVPLMRCGGCCNNRNVQCRPTEESNITMQIMRIKPHRGQHIGEMSFLQHNKCRCETVAAGSTSGSGKSSEGKGEVVKFMDVYQRSYCKTRTEVFEISRRLIDATNANFLVWPPCVEVQRCSGCCNHEGLECVPTQVQLRPVQVRKIEFVRKKPIFKKATVTLEDHLACECRPKKD",EC50 (read off the curve),[12],~1 nM
same,Kd,[13],1 nM
same,Kd,[14],0.34 nM
"V3-3, yeast-displayed variant from the Vshuf library (designed binder) IAEPAVIAECHPIETLVDILQEYPDEIGYIFKPSCVPLMRCGGCCNNRNVQCRPTEESNITMQIMRIKPHRGQHIGEMSFLQHNKCKCETVAAGSTSGSGKSSEGKGEVVKFMDVYQRSYCKTRTEVFEISRRLIDRTNANFLVWPPCVEVQRCSGCCNHEGLECVPTQVQLRPVQVRKIEIVRKKPIFKKATVTLEDHLACECRPKKD",binding result,[15],binds
"PV6 K87R variant, yeast-displayed (designed binder, Clone from the PDGFR sorts of the error-prone library made from PV6; also called PV K87R) IAEPAMIAECHPIETLVDIFQEYPDEIEYIFKPSCVPLMRCGGCCNNRNVQCRPTEESNITMQIMRIKPHQGQHIGEMSFLQHNKCRCETVAAGSTSGSGKSSEGKGEVVKFMDVYQRSYCKTRTEVFEISRRLIDRTNANFLVWPPCVEVQRCSGCCNDEGLECVPTQVQLRPVQVRKIEIVRKKPIFKKATVTLEDHLACKCRPKKD",EC50 (read off the curve),[4],~6 nM
same,EC50 (read off the curve),[11],~50 pM
same,Kd,[6],0.049 nM
same,Kd,[7],6.4 nM
"PV3 PDGF/VEGF hybrid construct, yeast-displayed (designed binder, only PV1) IAEPAMIAECKTRTEVVDIFQEYPDEIEYIFKPSCVPLMRCSGCCNNRNVQCRPTEESNITMQIMRIKPHQGQHIGEMSFLQHLACKCETVAAGSTSGSGKSSEGKGEVVKFMDVYQRSYCHPIETLFEISRRLIDRTNANFLVWPPCVEVQRCGGCCNDEGLECVPTQVQLRPVQVRKIEIVRKKPIFKKATVTLEDHNKCECRPKKD",binding result,[16],no binding
same,binding result,[17],no binding
"PV7 PDGF/VEGF hybrid construct, yeast-displayed (designed binder, the text names only PV6) IAEPAMIAECKTRETLVDIFQEYPDEIEYIFKPSCVPLMRCSGCCNNRNVQCRPTEESNITMQIMRIKPHQGQHIGEMSFLQHNKCKCETVAAGSTSGSGKSSEGKGEVVKFMDVYQRSYCHPITEVFEISRRLIDRTNANFLVWPPCVEVQRCGGCCNDEGLECVPTQVQLRPVQVRKIEIVRKKPIFKKATVTLEDHLACECRPKKD",binding result,[18],binds
"PV8 PDGF/VEGF hybrid construct, yeast-displayed (designed binder, the text names only PV6) IAEPAMIAECKTIETLVDIFQEYPDEIEYIFKPSCVPLMRCSGCCNNRNVQCRPTEESNITMQIMRIKPHQGQHIGEMSFLQHLACKCETVAAGSTSGSGKSSEGKGEVVKFMDVYQRSYCHPRTEVFEISRRLIDRTNANFLVWPPCVEVQRCGGCCNDEGLECVPTQVQLRPVQVRKIEIVRKKPIFKKATVTLEDHNKCECRPKKD",binding result,[18],binds
"PV5 PDGF/VEGF hybrid construct, yeast-displayed (designed binder, only PV1) IAEPAMIAECKTRTEVFEIFQEYPDEIEYIFKPSCVPLMRCSGCCNNRNVQCRPTEESNITMQIMRIKPHQGQHIGEMSFLQHLACKCETVAAGSTSGSGKSSEGKGEVVKFMDVYQRSYCHPIETLVDISRRLIDRTNANFLVWPPCVEVQRCGGCCNDEGLECVPTQVQLRPVQVRKIEIVRKKPIFKKATVTLEDHNKCECRPKKD",binding result,[16],no binding
same,binding result,[17],no binding
"PV4 PDGF/VEGF hybrid construct, yeast-displayed (designed binder, only PV1) IAEPAMIAECKTRTEVFDIFQEYPDEIEYIFKPSCVPLMRCSGCCNNRNVQCRPTEESNITMQIMRIKPHQGQHIGEMSFLQHLACKCETVAAGSTSGSGKSSEGKGEVVKFMDVYQRSYCHPIETLVEISRRLIDRTNANFLVWPPCVEVQRCGGCCNDEGLECVPTQVQLRPVQVRKIEIVRKKPIFKKATVTLEDHNKCECRPKKD",binding result,[16],no binding
same,binding result,[17],no binding
